Experimental data as given in article PMC3448645, “Functional Studies of ssDNA Binding Ability of MarR Family Protein TcaR from Staphylococcus epidermidis”.

Assays:
[1] = target: T1, TcaR (Staphylococcus epidermidis, UniProt Q5HLN6 1-151); assay: EMSA; similar to GC33; small and large complexes; EMSA: 20 mM Tris-HCl pH 8.0, 150 mM KCl, 0.1 mM MgCl2, 0.05 mM EDTA, 12.5% glycerol, 0.1 mM DTT, 1 mg/ml BSA, room temperature (30 C for viral ssDNA); SPR: 50 mM Tris, 150 mM NaCl, pH 7.5, 25 C; conditions: protein: recombinant; chain copies: 2
[2] = target: T1, TcaR; assay: SPR; shown as '-' in table; EMSA: 20 mM Tris-HCl pH 8.0, 150 mM KCl, 0.1 mM MgCl2, 0.05 mM EDTA, 12.5% glycerol, 0.1 mM DTT, 1 mg/ml BSA, room temperature (30 C for viral ssDNA); SPR: 50 mM Tris, 150 mM NaCl, pH 7.5, 25 C; conditions: protein: recombinant; chain copies: 2
[3] = target: T1, TcaR; assay: EMSA; similar to GC33; small complex; EMSA: 20 mM Tris-HCl pH 8.0, 150 mM KCl, 0.1 mM MgCl2, 0.05 mM EDTA, 12.5% glycerol, 0.1 mM DTT, 1 mg/ml BSA, room temperature (30 C for viral ssDNA); SPR: 50 mM Tris, 150 mM NaCl, pH 7.5, 25 C; conditions: protein: recombinant; chain copies: 2
[4] = target: T1, TcaR; assay: EMSA; no significant interaction; 1 uM DNA; EMSA: 20 mM Tris-HCl pH 8.0, 150 mM KCl, 0.1 mM MgCl2, 0.05 mM EDTA, 12.5% glycerol, 0.1 mM DTT, 1 mg/ml BSA, room temperature (30 C for viral ssDNA); SPR: 50 mM Tris, 150 mM NaCl, pH 7.5, 25 C; conditions: protein: recombinant, chain copies: 2
[5] = target: T1, TcaR; assay: SPR; EMSA: 20 mM Tris-HCl pH 8.0, 150 mM KCl, 0.1 mM MgCl2, 0.05 mM EDTA, 12.5% glycerol, 0.1 mM DTT, 1 mg/ml BSA, room temperature (30 C for viral ssDNA); SPR: 50 mM Tris, 150 mM NaCl, pH 7.5, 25 C; conditions: protein: recombinant; chain copies: 2; label: 5' biotin (SPR)
[6] = target: T1, TcaR; assay: EMSA; EMSA: 20 mM Tris-HCl pH 8.0, 150 mM KCl, 0.1 mM MgCl2, 0.05 mM EDTA, 12.5% glycerol, 0.1 mM DTT, 1 mg/ml BSA, room temperature (30 C for viral ssDNA); SPR: 50 mM Tris, 150 mM NaCl, pH 7.5, 25 C; conditions: protein: recombinant, chain copies: 2
[7] = target: TcaR quadruple mutant (Staphylococcus epidermidis, UniProt Q5HLN6 1-151, R71A;K73A;R93A;K95A); assay: as above; conditions: protein: recombinant, chain copies: 2
[8] = target: T1, TcaR; assay: EMSA; weaker than the single strands; EMSA: 20 mM Tris-HCl pH 8.0, 150 mM KCl, 0.1 mM MgCl2, 0.05 mM EDTA, 12.5% glycerol, 0.1 mM DTT, 1 mg/ml BSA, room temperature (30 C for viral ssDNA); SPR: 50 mM Tris, 150 mM NaCl, pH 7.5, 25 C; conditions: protein: recombinant; chain copies: 2

GCGTTGGCGTCGTGAGCGTTGGCGTCGTG (ssDNA) [GC29]
binding result [1]: binds

B1: Control dsDNA (dsDNA)
DNA 1: CCCCCGGGTTCGATGGGCTCAAGGCGGGCATGAAGTACCCCGTACTTCATGCCCGCCTTGAGCCCATCGAACCC
DNA 2: GGGTTCGATGGGCTCAAGGCGGGCATGAAGTACGGGGTACTTCATGCCCGCCTTGAGCCCATCGAACCCGGGGG
binding result [2]: no binding

GTTGGCGTCGTGAGCGTTGGCGTCG (ssDNA) [GC25]
binding result [3]: binds

GATTATTTATTTTCAAG (ssDNA) [AT17]
binding result [4]: no binding

GTTGGCGT (ssDNA) [GC8]
binding result [5]: no binding

GAGCGTTGGCGTCGTGAGCGTTGGCGTCGTGCG (ssDNA) [GC33]
binding result ([6]; label: 5' biotin (SPR only)): binds
binding result ([7]; label: 5' biotin (SPR only)): no binding

GAGCGTTGGCGTCGTGC (ssDNA) [GC17]
binding result ([4]; label: 5' biotin (SPR only)): no binding

GATTATTTATTTTCAAATTATTTATTTTCAAGG (ssDNA) [AT33]
binding result ([6]; label: 5' biotin (SPR only)): binds

B2: IcaR DNA1 (dsDNA)
DNA 1: TATTGCAAATTGAAATACTTTCGATTAGCATAT
DNA 2: ATATGCTAATCGAAAGTATTTCAATTTGCAATA
binding result [7]: no binding
binding result [8]: binds

TATTGCAAATTGAAATACTTTCGATTAGCATAT (ssDNA) [IcaR DNA1S]
binding result [6]: binds

ATATGCTAATCGAAAGTATTTCAATTTGCAATA (ssDNA) [IcaR DNA1A]
binding result [6]: binds
